How the values were obtained:
Assay type in all cases: in vitro ADME, human
[1] = substrate: COc1cc(-c2coc3cc(O)c(OC)c(O)c3c2=O)cc(O)c1OC; assay: Enzyme kinetics with recombinant CYP2C19; settings: other: recombinant CYP2C19, mean ± SE, n = 3; 30.0 °C
Procedure: (§1) A series of concentrations (1–300 μM) of tectorigenin, irigenin, or irisflorentin were added to HLMs or recombinant enzymes. Nonlinear regression was performed on the substrate concentration and generation rate of metabolites to investigate the enzymatic kinetic characteristics of these components in the metabolic system. All experiments were carried out in triplicate.
(§2) A Waters AQUITY UPLC system (Waters, Milford, MA, United States) equipped with a Dikma ODS C18 column (150 × 4.6 mm, 5 μm) was used for separation at 30°C. The binary mobile phase consisted of A (an aqueous solution containing 0.1% acetic acid and 2 mM ammonium acetate) and B (acetonitrile) at a flow rate of 1 mL/min. The elution settings were as follows: 0 → 5 min: 10% B → 20% B; 5 min → 20 min: 20% B → 50% B; 20 min → 21 min: 50% B → 60% B; 21 min → 25 min: 60% B → 90% B; 25 min → 25.1 min 90%–10% B; 25.1 min → 30 min 10% B. Flow rate: 1 mL/min 260 nm was used as the detection wavelength. Calibration standard curves were generated using a reaction mixture containing tectorigenin, irigenin, or irisflorentin at a concentration range of 0.03–10 µM. The concentrations of the metabolites were calculated using a standard curve of the substrates.
(§3) GraphPad Prism software 5.0 was used to perform non-linear fitting between the metabolite generation rate (V) and substrate concentration [S]. The appropriateness of the enzyme kinetic model was determined using R ^2 and the Eadie-Hofstee fit. The maximum metabolic rate (Vmax) and Michaelis constant (Km) were obtained for kinetic processes that conformed to the Michaelis–Menten model (Equation 1). For kinetic processes that conform to the sigmoidal kinetics model (Equation 2), Vmax, Hill coefficient (n), and S50, concentrations at 50% Vmax were obtained. Intrinsic clearance (Clint) was calculated according to Equation 3 (for the Michaelis–Menten model) and Equation 4 (for the sigmoidal kinetics model). All data are expressed as mean ± Standard Error (SE). One - way analysis of variance was used to compare the differences between different groups. […]

[2] = substrate: COc1cc(-c2coc3cc4c(c(OC)c3c2=O)OCO4)cc(OC)c1OC; assay: Enzyme kinetics with recombinant CYP1A2; settings: other: recombinant CYP1A2, sigmoidal kinetics (S50), mean ± SE, n = 3; 30.0 °C
Procedure: as §1, §2, §3

[3] = substrate: COc1c(O)cc2occ(-c3ccc(O)cc3)c(=O)c2c1O; assay: Enzyme kinetics with recombinant CYP2E1; settings: other: recombinant CYP2E1, mean ± SE, n = 3; 30.0 °C
Procedure: as §1
A Waters AQUITY UPLC system (Waters, Milford, MA, United States) equipped with a Dikma ODS C18 column (150 × 4.6 mm, 5 μm) was used for separation at 30°C. The binary mobile phase consisted of A (an aqueous solution containing 0.1% acetic acid and 2 mM ammonium acetate) and B (acetonitrile) at a flow rate of 1 mL/min. […] The concentrations of the metabolites were calculated using a standard curve of the substrates.
GraphPad Prism software 5.0 was used to perform non-linear fitting between the metabolite generation rate (V) and substrate concentration [S]. The appropriateness of the enzyme kinetic model was determined using R ^2 and the Eadie-Hofstee fit. […] Intrinsic clearance (Clint) was calculated according to Equation 3 (for the Michaelis–Menten model) and Equation 4 (for the sigmoidal kinetics model). All data are expressed as mean ± Standard Error (SE). […]

B1: CYP2C19 (Homo sapiens) (protein)
chain: MDPFVVLVLCLSCLLLLSIWRQSSGRGKLPPGPTPLPVIGNILQIDIKDVSKSLTNLSKIYGPVFTLYFGLERMVVLHGYEVVKEALIDLGEEFSGRGHFPLAERANRGFGIVFSNGKRWKEIRRFSLMTLRNFGMGKRSIEDRVQEEARCLVEELRKTKASPCDPTFILGCAPCNVICSIIFQKRFDYKDQQFLNLMEKLNENIRIVSTPWIQICNNFPTIIDYFPGTHNKLLKNLAFMESDILEKVKEHQESMDINNPRDFIDCFLIKMEKEKQNQQSEFTIENLVITAADLLGAGTETTSTTLRYALLLLLKHPEVTAKVQEEIERVIGRNRSPCMQDRGHMPYTDAVVHEVQRYIDLIPTSLPHAVTCDVKFRNYLIPKGTTILTSLTSVLHDNKEFPNPEMFDPRHFLDEGGNFKKSNYFMPFSAGKRICVGEGLARMELFLFLTFILQNFNLKSLIDPKDLDTTPVVNGFASVPPFYQLCFIPV
notes: purchased CYPEX (Dundee, United Kingdom)
B1 showed a K0.5 [1] of 31.7 ± 2.4 µM, a kcat [1] of 0.255 ± 0.005 s⁻¹ and a kcat/Km [1] of 8330 M⁻¹ s⁻¹.

B2: CYP1A2 (Homo sapiens) (protein)
chain: MALSQSVPFSATELLLASAIFCLVFWVLKGLRPRVPKGLKSPPEPWGWPLLGHVLTLGKNPHLALSRMSQRYGDVLQIRIGSTPVLVLSRLDTIRQALVRQGDDFKGRPDLYTSTLITDGQSLTFSTDSGPVWAARRRLAQNALNTFSIASDPASSSSCYLEEHVSKEAKALISRLQELMAGPGHFDPYNQVVVSVANVIGAMCFGQHFPESSDEMLSLVKNTHEFVETASSGNPLDFFPILRYLPNPALQRFKAFNQRFLWFLQKTVQEHYQDFDKNSVRDITGALFKHSKKGPRASGNLIPQEKIVNLVNDIFGAGFDTVTTAISWSLMYLVTKPEIQRKIQKELDTVIGRERRPRLSDRPQLPYLEAFILETFRHSSFLPFTIPHSTTRDTTLNGFYIPKKCCVFVNQWQVNHDPELWEDPSEFRPERFLTADGTAINKPLSEKMMLFGMGKRRCIGEVLAKWEIFLFLAILLQQLEFSVPPGVKVDLTPIYGLTMKHARCEHVQARLRFSIN
notes: as for B1
With B2 the K0.5 [2] was 38.5 ± 2.5 µM, the kcat [2] was 1.77 ± 0.0467 s⁻¹ and the kcat/Km [2] was 25000 M⁻¹ s⁻¹.

B3: CYP2E1 (Homo sapiens) (protein)
chain: MSALGVTVALLVWAAFLLLVSMWRQVHSSWNLPPGPFPLPIIGNLFQLELKNIPKSFTRLAQRFGPVFTLYVGSQRMVVMHGYKAVKEALLDYKDEFSGRGDLPAFHAHRDRGIIFNNGPTWKDIRRFSLTTLRNYGMGKQGNESRIQREAHFLLEALRKTQGQPFDPTFLIGCAPCNVIADILFRKHFDYNDEKFLRLMYLFNENFHLLSTPWLQLYNNFPSFLHYLPGSHRKVIKNVAEVKEYVSERVKEHHQSLDPNCPRDLTDCLLVEMEKEKHSAERLYTMDGITVTVADLFFAGTETTSTTLRYGLLILMKYPEIEEKLHEEIDRVIGPSRIPAIKDRQEMPYMDAVVHEIQRFITLVPSNLPHEATRDTIFRGYLIPKGTVVVPTLDSVLYDNQEFPDPEKFKPEHFLNENGKFKYSDYFKPFSTGKRVCAGEGLARMELFLLLCAILQHFNLKPLVDPKDIDLSPIHIGFGCIPPRYKLCVIPRS
notes: as for B1
In the case of B3, the K0.5 [3] is reported as 130.4 ± 18.8 µM and the kcat [3] is reported as 0.427 ± 0.0267 s⁻¹.

From publication PMC11850249, “Typical and atypical metabolic characteristics of three iridaceae isoflavone components: in vitro and in silico studies” (Frontiers in Pharmacology, 2025)
